Measured values from patent US20110271408A1.

Molecular target: HAB1 (PP2C used in the in vitro phosphatase activity assays) (UniProt Q9CAJ0)
Assay: cell-based or functional assay

Sequence of HAB1 (PP2C used in the in vitro phosphatase activity assays) (Q9CAJ0 23-511 limits assumed): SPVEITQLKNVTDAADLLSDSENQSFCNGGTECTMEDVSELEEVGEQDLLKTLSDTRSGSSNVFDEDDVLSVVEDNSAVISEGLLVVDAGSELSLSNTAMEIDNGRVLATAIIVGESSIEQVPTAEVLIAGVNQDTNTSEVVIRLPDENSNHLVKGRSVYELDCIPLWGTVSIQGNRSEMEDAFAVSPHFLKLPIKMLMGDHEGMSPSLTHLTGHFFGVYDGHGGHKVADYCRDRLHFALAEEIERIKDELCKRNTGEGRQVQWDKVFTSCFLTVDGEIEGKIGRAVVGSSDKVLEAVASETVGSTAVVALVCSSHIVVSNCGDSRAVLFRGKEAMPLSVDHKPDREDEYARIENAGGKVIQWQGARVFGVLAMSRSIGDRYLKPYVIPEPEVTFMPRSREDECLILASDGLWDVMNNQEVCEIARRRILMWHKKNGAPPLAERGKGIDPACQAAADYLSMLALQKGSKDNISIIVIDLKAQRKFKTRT

Substance: PYR1 K59R, Y120H, M158I triple mutant (recombinant protein) (from UniProt O49686 1-191) (receptor)
- in vitro receptor assay (PP2C activity, 2:1 receptor to phosphatase); IC50 of fenhexamid: 400 nM
